Test [1] has as its target PGR5a fused to the N-terminal part of YFP (PGR5a-YFP^n) (cucumber (Cucumis sativus L.)). In words: split reporter (BiFC, NanoBiT); halves of YFP, transient expression in N. benthamiana leaves, confocal microscopy on the third day; also after 30 min in the dark (state 1) or red light (state 2).
The target in test [2] is cyt b6f complex of cucumber thylakoid membranes (cucumber (endogenous in cucumber thylakoids)). In words: native gel or EMSA; blue native PAGE of thylakoid membranes (cucumber or tobacco) dissolved in an equal volume of 2% DM, 4 °C, followed by immunoblotting with anti-PGR5; leaf discs also arrested in state 1 or state 2, dark or red light, or incubated with Put.

In turn, “Lhcb3 fused to the C-terminal part of YFP (Lhcb3-YFP^c) (natural protein)” gave a YFP fluorescence intensity (BiFC), stronger in state 2 than in state 1 in test [1] of 64%.

On to “PetC fused to the C-terminal part of YFP (PetC-YFP^c) (natural protein)”, for which the YFP fluorescence intensity (BiFC), stronger in state 1 than in state 2 in test [1] is 64%. As for “PsaH fused to the C-terminal part of YFP (PsaH-YFP^c) (natural protein)”, the YFP fluorescence intensity (BiFC), stronger in state 2 than in state 1 in test [1] worked out at 67%. “native PGR5 protein of cucumber thylakoid membranes (natural protein)” came in with a PGR5 abundance in the cyt b6f complex, higher in state 1 than in state 2 in test [2] of 40%.

The record behind these values is publication PMC7933433.
